The results in this text go back to the DeepSol protein solubility set.

A short description of the data set: soluble on expression in E. coli; label from the status in PepcDB or PDB records.
On to “MYGEGDFYTIKSKRDYEFYLEADRLALGKNCKKPRLIGDDIWKFQRLLRQAEYYSNCQNSLLHKLYLKYILFRFHRMSIRLGFSIPINVFGPGLCIAHRGTIVVNKGARVGENCRIHACTNIGSGRDNIFLAPKIGNGVYIGPGAKIFGSVEIADNIAIGANSVVNRSFYERGISIAGVPAKKISNKGSDGMVIAATKTVSVPVSQETILEHHHHHH”, for which the “soluble on expression in E. coli” value was “soluble”.

For the sequence “MYKWLLSVLLVLMSTVVHAADCFDLAGRDYKIDPDLLRAISWKESRNRANAVGINPVTGYGSGLMQVDSQHFNELARYGIKPEQLVSDPCLNIYTGAYYLAIAFRKWGVSWTAVGAYNAGFKKTPLQDARRLDYATDVHRIWIAIKQSKTRQTPAR”, the “soluble on expression in E. coli” value is recorded as “not soluble”.

As for “MYLHGTSRINGQGHLEIGGCDTTQLAKQYGTPLYVYDEGSIRGKCRAFHRAFKESGFSYQVAYASKAFLCMEMCRVAREENMSLDVVSGGELYTALQAGFPASRIHFHGNNKTEEEIVMALQANIGCFVVDNFFELEVLHDLAMQHGKFVNILIRVTPGVEAHTHEYITTGQDDSKFGFGVSNGQAMQAIGLALQKSNYNVLGIHSHIGSQIFETAGFVRAIEVLRQFLEEVREQTNYVVKVLNVGGGFGIRYTESDTPLTLETYVRAVTSAVREQFTVCEYPLPEIWIEPGRSIVGDAGTTIYTVGSVKDIPGIRKYVSVDGGMTDNLRPALYNARYEAMLANRANDENEELVSIAGKCCESGDMLIWDIHLPKVAASDLLAVSCTGAYGYSMANNYNRIRRPAVVFAKGGTSQVVVERETYENIIGNDRIRIKELV”, the “soluble on expression in E. coli” value is listed as “not soluble”.

As for “MYLLRINIEGTINYGLYKYLYPALKAAEGKKSIAGLILVFNSGGGDAASSQLIHDLVKKIRKKKPVYSLALGICASGAYWIASASTKIYAIDTSLIGSIGVISIRPNVKKLMEKIGVDVMVYKSGKYKDMTSPFSEPNEEEKSVYQRLLDDIFEKFKRSVAEDRGIPSEKIDEIANGMVYSAKMAADNGLIDRIANYDDLVSDLTKEVGKRLKVKEFYIRKPLLQRLLGILEHHHHHH”, the “soluble on expression in E. coli” value is listed as “not soluble”.

Consider “MYLQPKKVRWRKQRRGTLKGKAFRGNKLAFGEYGIQALDRAWITQQQIEAVRVALVRSLKKGAKVWIRIFPDKPYTKKPNEVRMGGGKGDPEGFVAVVKPGRILFEFTGVPEEVAQEAFTIAASKLPIPVRLVKYGEFTFKYLEHHHHHH”, for which the “soluble on expression in E. coli” value is “not soluble”.

Take “MYNVTQHATYKTKNKRETAVLIGVHAQTDRQFNFESTMEELDALSQTCQLNVKGQITQNREQFDHKYYVGKGKIDEIKSFIEFHDIDVVVTNDELTTAQSKTLNDNLGIKIIDRTQLILEIFALRARSREGKLQVELAQLDYLLPRLHGHGKSLSRLGGGIGTRGPGETKLEMDRRHIRTRMNEIKHQLKTVVDHRERYRNKREQNQVFQIALVGYTNAGKSSWFNVLANEETYEKNILFATLDPKTRQIQVNEGFNLIISDTVGFIQKLPTTLVAAFKSTLEEAKGADVLMHVVDASHSEYRTQIDTVNQIINDLDMDHIPQVVIFNKKDLCNEQMDVPVSKSAHVFVSSRDENDKQKVKNLVIQEIKNSLSPYEEIVDSADADRLYFLKQHTLVTELIFDETQASYRIKGFKKLLEHHHHHH”: the “soluble on expression in E. coli” value was “not soluble”.

With “MYPIKYVENNLVFNQEGECFAYYELVPYNYSFLSPEQKYQVHDNFRQLIAQNREGKIHALQIATESSIRATQERSKKEITGRLKEVAKQRIDLQTDALVSMIGDSQIDYRFFIGFKLIATDEEVNLKSLKKSFLSGLQEFVYGVNHHLMGDFVSLSNEEIRRYTKLEKLMESKLARRFKVRRVTPSDLTYLIEHIYGEKGTPFEEYEFQLPKKKLKSETLVKRYDLLHPSRCLIEENPRYLRMEHENHESYVAYLTINTIVGEMEFPSSELFYYQQQQFTFPIDTSMNVEIVTNKKALATVRNKKKELKDLDNHAYQSDNETNSNVLDALDSVNELETTLDQSKESMYKLSYVVRVSAESVDELKRRCDEVFDFYDDTNVKLVRPFGDMMGLHEEFLPSSKRYMNDYIQYVTSDFLAGLGFGATQKLGELEGIYFGYNVDTGRNVYLKPALASQGVKGSVTNALAAAFLGSLGGGKSFSNNLLVYYAVLFGGQAVIVDPKGERGGWKENLPEIADEINILNLTSKPENQGLLDPYVIMKKKKDSESLAIDILTFLTGISSRDGEKFPVLRKAIRTVTQSDQRGLLQVINELRKENSPVAENIADHIESFTDYDFAHLLFSDGSITQSISLDKQLNIIQVADLVLPDAETTFEEYTTMELLSVSMLIVISTFALDFIHSNREIFKIVDLDEAWSFLQVAQGKTLSNKLVRAGRAMNAGVYFVTQNSDDLLDERLKNNIGLKFAFRSTDIHEIKKTLEFFGLDQEDESNQKRLRDLENGQCLMQDLYGRVGVVQVHPVFEELFHAFDTRPPVQERME”, the “soluble on expression in E. coli” value was “not soluble”.

Consider “MYPLNIDGEELYLRDLKINDLPNLLKWYNNIDDFSLATGVYKPITLKEILERYFKCQSSSKDFFAGIYIRKSGEMIGVLKGWLDCEKDLSAWINSIIIDPGFQRKGYGSKTVNLFIRHVKECCNVKRVYLSVAEENFKGMSFWKQQSFREVKKISKDRDSVSKCKSIVIMCREI”, for which the “soluble on expression in E. coli” value is listed as “not soluble”.

Take “MYQEFFTFIPVDIEELDKAFGGGLIRGATISIMYDAFSLGWALGFEMVKNLIRRNSFGVIHNYNLPTIKLISRASFVGLNIQELAKRKEIMILDVFGSKYDVPPYADYVLQVPNPTPETLNPKIESVYENKIFQVAGDRRIVKLVYTLDGVATMFGEEVAIKLLNGELAWLAKMYGKRNVMTILLLNVDMVSKKFIAWTSGVSDIVITFQSLTEEREGELVERMTVIKSLNPEFEPTSYEFRVTATGTGSHALDFRKIENKRDK”: the “soluble on expression in E. coli” value was “soluble”.

As for “MYRLERTQRLPISIDEAWDFFASPDNLKKITPAYMGFDIKSGGGIPMYAGMIIKYTVRPLLGIPMTWVTEITHVEPQRFFVDEQRVGPYAIWHHQHHFKAIENGVEMTDILHYKLPFGILGNLAHPFLVKNKLEEIFNFRNKKMVELFGTYKLEHHHHHH”, the “soluble on expression in E. coli” value was “soluble”.

With “MYRVFECFDELIDILEKSTGVPMTSNCMVPRHHMLALIDEARNALPNEIDDAQDVIDQQDEILRGAQERARTTIDEANEEARRTVTQSREEADALVADAEEHAERVVRQAQDEADRLVDGARREADDTVNRAQAEAERLIASGNDQYQRSVDDGLAEQQRLVSEAEVVRRANEEAHRVVDAAHADSNRLRKECDTFVENKLADLEESLSSTLRTISRDRAALRRGAGASGGGNHSQS”, the “soluble on expression in E. coli” value is “not soluble”.

With “MYSCTSPSGIKVSLSTPEIWEEFYPKTEMIVTRNRGRVIFPHLDYIIKGLDPGSLYSIYIHLERVDGIKYKFDAGEWKEFAKGDPILPIQYKEHPRGKRTGAEWMSEPVSFAHIKITNNPEIKDQKVILVQSMHKHIPVVTVKQVRHYKTGYQEDFSGEQFRLEATEFMVVTAYQNEILKNLKVHHNKFASGFRSNGKRRLSSDSENSENSPPKRSKLVTPPTISPQIDLPQQTPYYFNQNFVAPQNYQPQFASAQNYNFEVQNNAQLAWNMYYQKQYEFWWQQQQMMMPGQPQELKNEFQSL”, the “soluble on expression in E. coli” value is “not soluble”.

On to “MYSDKVFDHFQNPRNVGKIEDADGVGTVGNPVCGDLMTIYIKVKDNRIEDIKFQTFGCAAAIATSSMATEMAKGKTIEEALKITRDAVAEALGGLPKQKMHCSNLAADALRRAIVDYFRKNGKIDKIKELGLEKELEKMEKGEMDDHGEYCEA”, for which the “soluble on expression in E. coli” value is reported as “not soluble”.

For “MYSEERRRQIASLTAVEGRVNVTELAARFDVTAETIRRDLAVLDREGVVHRVHGGAVANQTFQTAEFSLDTRSRSASGAKNSIAHAALSYLPEAQGGLFLDAGTTTAALAELLAAQPFAKHWSIVTNSLSIALTLANSGLDEIQLLGGSVRAITQAVVGDTALRTLALMRADVAFIGTNALTIDHGLSTADSQEAAIKSAMITNAHKVVVLCDSTKMGTDYLVSFGSISDIDVIITDANAPESFVKALRDRDVEVIIALEHHHHHH”, the “soluble on expression in E. coli” value was “soluble”.

As to “MYSLIRHGRSLVELQKWRHLRVLVQKASPLSNSFSSASAARLSPRVGRKGKSFTVSYLVDSLGLPKKLAESVSRKVSFEDKDNPDSVLNLLRSHGFTDSQISTIVTDYPQLLVADAEKSLAPKLQFLQSRGASSSELTEIVSTVPKILGKRGHKTISVFYDFIKETLLDKSSKSEKSCQPFPQGNLENKIRNLSVLRELGMPHKLLFPLLISCDVPVFGKEKFEESLKKVVEMGFDPSTSKFVEALCVVQRLSDKNIEDKVNAYKRLGFDVEYVWTVFKRWPNFLTHSEKKILNTIETFLGLGFSRDEFSVLIKRFPQGIGLSAEMVKKKTEFLVKKMNWPLKALVSNPAVLGYSLEKRTVPRGNVVQALISKGLIGSELPSISRVFVCTDQVFLNRYVKRHEDKQLETELMAIYRAS”, the “soluble on expression in E. coli” value is recorded as “soluble”.

For “MYSLLTLLFVLFFSGSTLLVQCGGKKKGATSAEGKSSTMGPAPGGAPAAASAQGEPEEKE”, the “soluble on expression in E. coli” value is given as “not soluble”.

Turning to “MYSYKHPIYCANPVLSGQKIIELPPMNVPFSTYYEVYVTVQDHIPISSFVSMDLIMKNDNYSGGNFQVYSKDVSGILASHSNHFSPVTYSMQLQYEYKNWAEEDTQVRVYSDRLPPYWLPYCD”, the “soluble on expression in E. coli” value was “not soluble”.

As for “MYVTVTEAAYKKIMDTIPSEAKYIKLFYDNEGCGCVMSGIIDLVAVAEKDERDVDIESSTMNFIADRTKLVFMDDKLTVDWHEGGGTFQLKSPSQFYNPNMKLHVRVLEHHHHHH”, the “soluble on expression in E. coli” value was “soluble”.

As for “MYVVINIDPGSTLNELMAFMTQKTITFSVTDQLSRLCDRTANGDRREVCTQTDDNCFDPPPNKKSKGYNGEDYGSPCSSATPSEPVDLGILTKTNGNSNGNHNWDTESKVLRGLIRSENGRSKSSIKEEPEEASVEDDISTEYMQNQLMQALFPKNQNGSGLANFASLEDNESIEGESGGLSDLGGFNMDSSSPASAIRYKPAYASTKRGVCRVCNREVSLITTHRRRHAITHLGFKTLKCALCYKFFSRQDLATGHFKKDHPTSEFMPFVDTMSPEDERQLVVMMELCFPEETGPRKRKDTDPKKQKVGEVEDSF”, the “soluble on expression in E. coli” value is on record as “not soluble”.

Turning to “MYYGALSIRAEAWLIVSPEVTKIMAKEQTDRTTLDLFAHERRPGRPKTNPLSRDEQLRINKRNQLKRDKVRGLKRVELKLNAEAVEALNELAESRNMSRSELIEEMLMQQLAALRSQGIV”, the “soluble on expression in E. coli” value is “not soluble”.

As to “NAMPPIIKRRVMRKIIIASQNPAKVNAVRSAFSTVFPDQEWEFIGVSVPSEVADQPMSDEETKQGALNRVRNAKQRHPGAEYYVGLEAGIEENKTFAWMIVESDQQRGESRSACLMLPPLVLERLRQAKELGDVMDEVFGTENIKQKGGAIGLLTRHHLTRSTVYHQALILALIPFINPEHYPSA”, the “soluble on expression in E. coli” value is listed as “soluble”.

On to “NDEDCRNIYRYSPKDRKFEKLNLETDVTSAFAMSENNPSLAAYIGQGCYNAGVAYVYDLKKKTSRLIADPMKPTLERIELGEMKPWNFTASDGTEIKGMMCLPPSFDPNKKYPLIVYYYGGTTPTERGISNPYCAQLFASRDYVVYVIQPSGTIGFGQEFSARHVNAWGKRTADDIIEGTKQFCKEHPFVNDKKIGCLGASYGGFMTQYLQTQTDIFAAAVSHAGISNVTSYWGEGYWGYGYNAIAAADSYPWNNPELFTKQGSLFNADKINTPLLLLHGTVDTNVPIGESIQLFNALKILGKTVEFITVDGENHFIADYPKRMQWHNSIMAWFARWLQ”, for which the “soluble on expression in E. coli” value was “not soluble”.

For “NDIYNNAITPYLNKETGYQEMFQRVNTRIREFMINELKNHHNEDNVFMLAKNSGIEIAKIEEAPNAVLIPAFVLGELEVAFK”, the “soluble on expression in E. coli” value is “not soluble”.
